Reference: PMC5573156 (Developmental cell, 2017)
Where two headings read alike, the source gives them in different places. Each block holds one molecule with its values, some of them ahead of it.

Columns and labels:
[1] = target: microtubules polymerized from bovine brain tubulin (bovine) (UniProt Q6B856); test: single-molecule TIRF motility assay
[2] = target: bovine brain tubulin, unpolymerized (soluble αβ-tubulin dimer) (bovine) (UniProt Q6B856)
[3] = target: Kip3_(438) (S. cerevisiae) (UniProt P53086); test: BLI
[4] = target: Kip3_(438)-L11^KHC (S. cerevisiae) (UniProt P53086); test: BLI
[5] = target: Kip3_(448) (S. cerevisiae) (UniProt P53086); test: BLI
[6] = target: microtubules polymerized from bovine brain tubulin (bovine) (UniProt Q6B856); test: single-molecule TIRF motility assay; remark: listed apart in the source
[7] = target: GTPγS-stabilized Tub1^D118A yeast microtubules (S. cerevisiae, UniProt P09733 1-447; P02557 1-457, D118A); test: TIRF fluorescence intensity on immobilised microtubules
Chain of GTPγS-stabilized Tub1^D118A yeast microtubules (P09733 whole entry D118A, chain 1 of 2): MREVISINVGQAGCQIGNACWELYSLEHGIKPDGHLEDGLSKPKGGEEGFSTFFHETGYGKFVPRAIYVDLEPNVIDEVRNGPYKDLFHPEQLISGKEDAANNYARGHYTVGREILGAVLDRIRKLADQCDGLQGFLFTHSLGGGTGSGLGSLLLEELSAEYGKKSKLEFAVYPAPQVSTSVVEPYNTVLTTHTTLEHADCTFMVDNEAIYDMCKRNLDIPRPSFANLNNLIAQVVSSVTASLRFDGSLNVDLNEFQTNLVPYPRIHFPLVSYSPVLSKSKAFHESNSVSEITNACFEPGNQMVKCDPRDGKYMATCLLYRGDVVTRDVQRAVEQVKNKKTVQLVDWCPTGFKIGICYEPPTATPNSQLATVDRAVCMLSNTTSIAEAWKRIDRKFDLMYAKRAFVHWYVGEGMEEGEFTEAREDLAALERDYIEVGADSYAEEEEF
Chain of GTPγS-stabilized Tub1^D118A yeast microtubules (P02557 whole entry, stated change not applied, chain 2 of 2): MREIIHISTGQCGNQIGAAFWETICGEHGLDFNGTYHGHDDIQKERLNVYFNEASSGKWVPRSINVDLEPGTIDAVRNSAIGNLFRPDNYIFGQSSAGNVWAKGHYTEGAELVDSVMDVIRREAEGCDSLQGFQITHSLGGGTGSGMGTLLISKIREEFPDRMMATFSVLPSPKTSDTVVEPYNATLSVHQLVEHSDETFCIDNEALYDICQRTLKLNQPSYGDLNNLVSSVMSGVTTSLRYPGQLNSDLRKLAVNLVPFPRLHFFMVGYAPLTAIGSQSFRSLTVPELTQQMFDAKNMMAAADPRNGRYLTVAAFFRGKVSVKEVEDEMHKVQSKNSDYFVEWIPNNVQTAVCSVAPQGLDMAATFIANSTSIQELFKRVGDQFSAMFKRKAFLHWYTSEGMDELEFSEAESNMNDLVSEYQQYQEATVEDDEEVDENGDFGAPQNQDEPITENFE

[8] = target: microtubules polymerized from bovine brain tubulin (bovine) (UniProt Q6B856); test: single-molecule TIRF motility assay; remark: listed apart in the source

Chain of microtubules polymerized from bovine brain tubulin (bovine) (Q6B856 whole entry, looked up): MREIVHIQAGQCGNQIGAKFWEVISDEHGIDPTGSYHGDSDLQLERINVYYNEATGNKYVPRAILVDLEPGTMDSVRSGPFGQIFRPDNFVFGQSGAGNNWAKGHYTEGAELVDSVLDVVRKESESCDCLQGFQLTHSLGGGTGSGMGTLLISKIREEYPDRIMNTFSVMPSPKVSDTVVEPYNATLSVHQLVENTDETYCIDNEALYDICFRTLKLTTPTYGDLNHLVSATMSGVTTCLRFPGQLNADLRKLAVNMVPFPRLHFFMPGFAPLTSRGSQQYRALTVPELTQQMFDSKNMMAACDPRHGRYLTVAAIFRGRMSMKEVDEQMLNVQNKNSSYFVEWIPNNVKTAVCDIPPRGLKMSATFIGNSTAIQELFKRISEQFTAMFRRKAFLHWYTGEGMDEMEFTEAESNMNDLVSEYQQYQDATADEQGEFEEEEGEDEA

- plus-end dwell time [1]: 9.3 s
Molecule: Kip3FL-L2^KHC (from UniProt P53086 1-805)

- plus-end residence time [1]: 52.1 s
Molecule: KHC560 with Kip3 Loop11 and Loop2 (from UniProt P33176 1-560)

- steady-state ATPase: decrease of the KM for tubulin against kinesin-1 [2]: 9.4 fold
Molecule: KHC560-L11^Kip3 (from UniProt P33176 1-560)

- lifetime of the complex [3]: 48 s
- fold change in tubulin binding affinity, Kip3 438 over Kip3 438-L11KHC [4]: 7 fold
- residence time (koff^-1) with ADP [5]: 35.7 s
Molecule: bovine brain tubulin, unpolymerized (soluble αβ-tubulin dimer) (from UniProt Q6B856 1-445) (complex)

- plus-end dwell time [6]: 38.2 s
- binding result [7]: binds
- plus-end dwell time [8]: 52.9 s
B1: Kip3FL (full-length Kip3, budding yeast kinesin-8) (natural protein, S. cerevisiae, UniProt P53086 1-805, looked up)
chain: MNVPETRQSSIVVAIRVRPFTSMEKTRLVNEASGAEANFPGLGDSSLILPMSNNSDSDIDIDAEEGSTRSKRNSLLRRKVIRPEGIRKIVDCVDDRMLIFDPADRNPLNKVSDQVLNSMRARATKATASSINNSNATNKFSSQRRRHGGEIKFVFDKLFDETSSQARVYKETTSPLLDSVLDGFNSTVFAYGATGCGKTYTVSGTPSQPGIIFLAMEELFNKITDLKDEKDFEISLSYLEIYNERIRDLLKPETPSKRLVIREDTQNHIKVANLSYHHPNTVEDVMDLVVQGNINRTTSPTEANEVSSRSHAVLQIHIMQTNKLVDLTSQHTFATLSIIDLAGSERAAATRNRGIRLHEGANINRSLLALGNCINALCLNDGSRSCHIPYRDSKLTRLLKFSLGGNCKTVMIVCISPSSSHYDETLNTLKYANRAKEIKTKIIRNQQSLSRHVGSYLKMITEQKRQIEELREREEKMISLKLTKYKLNKEKIQLAINECVNRVQQTYAGVETYQVAKTLKSLILCKRRFLQMVKLEVDNLILLFEREESTAAEMQPVISNCRMISGQLYNKIHELEMKFDETDTLSSVIHQVHSIDLNKLREMEDWDETYDLVYLESCLNQISELQRNEILVNSSIMTEKLMSDPGLNSRFKFLSKWLMNRTPNIESIIQDLVHIDEEFESFARTFIANPDSNFTNTNINIINTTAADLAVPAETLQRQNFSQKKVKWTSPDLSPSPMIEPQPELEPELHQDQDAIASEVDVSMQDTTFNEQGPSTPSAPTTAVPRRKMRSSLLTHQSLLATARK
modifications: TMR (HALO-TMR) on the HALO tag where labelled
